Patent US6294153A, “Aerosol pharmaceutical formulation for pulmonary and nasal delivery” (Generex Pharmaceuticals, Inc., priority 1999, dated 2001)
Where two headings read alike, the source gives them in different places.

What was measured:
[1] = healthy volunteers; 10, 20, 30 units aerosol
Excerpt: Day-1: 5 puffs of 2 units each (total 10 units)
Day-2: 5 puffs of 4 units each (total 20 units)
Day-1: 5 puffs of 6 units each (total 30 units)

[2] = Protocol: The vials were then charged with a non-CFC tetrafluoroethane, (134a) propellant with the aid of a Pamasol 2008 semi-automatic gas filling equipment.
The aerodynamic particle size was determined by 8-stage USP Anderson Cascade Impactor-Mark-II (trade mark). The Multistage Cascade Impactor was cleaned with methanol and air-dried at 30° C. Glass fibre filters were placed on the collection plates. Seals were aligned properly and the actuator was attached to the mouthpiece and assembled onto the USP induction port and jet stages. A vacuum pump was connected and air flow rate is set to 28.3 liter/min. The vial was primed by shaking for 10 seconds and actuating twice to waste. […] […] The filters were carefully removed and placed in scintillation vials and sonicated for 15 minutes.

[3] = stage 3, U400, 4 units/actuation
[4] = stage 4, U400, 4 units/actuation
[5] = stage 5, U400, 4 units/actuation
[6] = stage 6, U400, 4 units/actuation
[7] = stage 7, U400, 4 units/actuation
[8] = stage 8, U400, 4 units/actuation

## insulin
[1]
  absorption of insulin through lungs and oropharynx regions: significant absorption
[2]; cascade impactor, most particles
  size of most particles: smaller than 6 microns
[2]; cascade impactor, overall
  particle size (conclusion): about 3 microns
[2]; cascade impactor, indicates deep lung deposition
  droplet size, generally: smaller than 4 microns
[2]; stage 3, 2 units/actuation
  mg (insulin deposited): 0.77 mg
  units (insulin deposited): 10.1 units
[2]; [3]
  mg (insulin deposited): 0.77 mg
  units (insulin deposited): 20.1 units
[2]; stage 4, 2 units/actuation
  mg (insulin deposited): 0.78 mg
  units (insulin deposited): 10.1 units
[2]; [4]
  mg (insulin deposited): 0.78 mg
  units (insulin deposited): 20.1 units
[2]; stage 5, 2 units/actuation
  mg (insulin deposited): 0.81 mg
  units (insulin deposited): 10.0 units
[2]; [5]
  mg (insulin deposited): 0.81 mg
  units (insulin deposited): 20.0 units
[2]; stage 6, 2 units/actuation
  mg (insulin deposited): 0.80 mg
  units (insulin deposited): 10.3 units
[2]; [6]
  mg (insulin deposited): 0.80 mg
  units (insulin deposited): 20.3 units
[2]; stage 7, 2 units/actuation
  mg (insulin deposited): 0.80 mg
  units (insulin deposited): 10.1 units
[2]; [7]
  mg (insulin deposited): 0.80 mg
  units (insulin deposited): 20.1 units
[2]; stage 8, 2 units/actuation
  mg (insulin deposited): 0.79 mg
  units (insulin deposited): 10.1 units
[2]; [8]
  mg (insulin deposited): 0.79 mg
  units (insulin deposited): 20.1 units
[2]; stages 0-2
  insulin deposition: no insulin deposition
